In IntAct's records for PubMed 19081061:

B1: Pyruvate dehydrogenase E1 component subunit alpha, somatic form, mitochondrial (Homo sapiens), P08559-1 (parent)
chain: MRKMLAAVSRVLSGASQKPASRVLVASRNFANDATFEIKKCDLHRLEEGPPVTTVLTREDGLKYYRMMQTVRRMELKADQLYKQKIIRGFCHLCDGQEACCVGLEAGINPTDHLITAYRAHGFTFTRGLSVREILAELTGRKGGCAKGKGGSMHMYAKNFYGGNGIVGAQVPLGAGIALACKYNGKDEVCLTLYGDGAANQGQIFEAYNMAALWKLPCIFICENNRYGMGTSVERAAASTDYYKRGDFIPGLRVDGMDILCVREATRFAAAYCRSGKGPILMELQTYRYHGHSMSDPGVSYRTREEIQEVRSKSDPIMLLKDRMVNSNLASVEELKEIDVEVRKEIEDAAQFATADPEPPLEELGYHIYSSDPPFEVRGANQWIKFKSVS
partner: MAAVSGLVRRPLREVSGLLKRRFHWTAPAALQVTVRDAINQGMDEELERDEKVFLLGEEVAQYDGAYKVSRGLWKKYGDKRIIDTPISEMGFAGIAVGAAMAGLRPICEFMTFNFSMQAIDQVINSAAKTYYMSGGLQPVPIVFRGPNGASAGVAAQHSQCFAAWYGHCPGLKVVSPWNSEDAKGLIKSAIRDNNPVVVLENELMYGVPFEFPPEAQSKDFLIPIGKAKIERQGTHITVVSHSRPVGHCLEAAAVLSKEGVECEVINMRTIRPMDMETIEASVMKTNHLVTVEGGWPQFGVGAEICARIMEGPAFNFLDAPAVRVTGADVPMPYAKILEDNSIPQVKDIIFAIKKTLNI

Variants of: B1
Settings: with PDHB

effect of a mutation on the interaction | Variant
with no effect | MRKMLAAVSRVLSGASQKPASRVLVASRNFANDATFEIKKCDLHRLEEGPPVTTVLTREDGLKYYRMMQTVRRMELKADQLYKQKIIRGFCHLCDGQEACCVGLEAGINPTDHLITAYRAHGFTFTRGLSVREILAELTGRKGGCAKGKGGSMHMYAKNFYGGNGIVGAQVPLGAGIALACKYNGKDEVCLTLYGDGAANQGQIFEAYNMAALWKLPCIFICENNRYGMGTAVERAAASTDYYKRGDFIPGLRVDGMDILCVREATRFAAAYCRSGKGPILMELQTYRYHGHSMSDPGVAYRTREEIQEVRSKSDPIMLLKDRMVNSNLASVEELKEIDVEVRKEIEDAAQFATADPEPPLEELGYHIYSSDPPFEVRGANQWIKFKSVS [S232A;S300A]
with no effect | MRKMLAAVSRVLSGASQKPASRVLVASRNFANDATFEIKKCDLHRLEEGPPVTTVLTREDGLKYYRMMQTVRRMELKADQLYKQKIIRGFCHLCDGQEACCVGLEAGINPTDHLITAFRAHGFTFTRGLSVREILAELTGRKGGCAKGKGGSMHMYAKNFYGGNGIVGAQVPLGAGIALACKYNGKDEVCLTLYGDGAANQGQIFEAYNMAALWKLPCIFICENNRYGMGTSVERAAASTDYYKRGDFIPGLRVDGMDILCVREATRFAAAYCRSGKGPILMELQTYRYHGHSMSDPGVSYRTREEIQEVRSKSDPIMLLKDRMVNSNLASVEELKEIDVEVRKEIEDAAQFATADPEPPLEELGYHIYSSDPPFEVRGANQWIKFKSVS [Y118F]
